T1: FcgRIIaR (human, UniProt P12318 34-217)
T1 construct: extracellular domain; Soluble extracellular domain with C-terminal His tag; also called FcγRIIa R; FcγRIIa type R; not shown: His tag attached to the C terminus
T1 sequence (looked up): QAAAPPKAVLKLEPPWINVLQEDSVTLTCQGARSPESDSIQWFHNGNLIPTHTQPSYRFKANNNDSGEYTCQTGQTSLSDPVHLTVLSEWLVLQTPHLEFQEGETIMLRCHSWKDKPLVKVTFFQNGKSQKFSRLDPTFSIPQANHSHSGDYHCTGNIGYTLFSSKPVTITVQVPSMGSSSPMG

T2: FcgRIIb (human, UniProt P31994 43-217)
T2 construct: extracellular domain; Soluble extracellular domain with C-terminal His tag; also called FcγRIIb; CD32B; not shown: His tag attached to the C terminus
T2 sequence (looked up): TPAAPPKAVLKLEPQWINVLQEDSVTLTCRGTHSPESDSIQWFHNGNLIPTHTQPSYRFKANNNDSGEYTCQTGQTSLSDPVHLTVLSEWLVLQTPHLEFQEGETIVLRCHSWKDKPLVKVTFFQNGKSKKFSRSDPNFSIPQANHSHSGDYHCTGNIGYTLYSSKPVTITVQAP

T3: FcgRIIaH (human, UniProt P12318 34-217)
T3 construct: extracellular domain; Soluble extracellular domain with C-terminal His tag; also called FcγRIIa H; FcγRIIa type H; not shown: His tag attached to the C terminus
T3 sequence (looked up): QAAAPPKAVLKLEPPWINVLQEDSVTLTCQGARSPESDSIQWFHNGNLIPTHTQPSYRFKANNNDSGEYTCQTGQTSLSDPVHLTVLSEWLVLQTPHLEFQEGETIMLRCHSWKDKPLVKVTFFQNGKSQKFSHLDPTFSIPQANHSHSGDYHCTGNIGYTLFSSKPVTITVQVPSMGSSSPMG


What was measured:
[1] = target: T4, FcγRIIIa extracellular domain with C-terminal His tag (human, UniProt P08637 17-208); assay: SPR (Biacore), antibody captured on antigen peptide chip, FcγR as analyte
T4 construct: extracellular domain; also called FcgRIIIa; CD16A
From the text: The expression vectors for the respective H chains were combined in a way that each of the alterations L234Y, G236W, S298A, S239D, A330L, and I332E is present in the same H chain as P329R or in the different H chain from P329R, and the expression vector GpL16-k0 for the L chain was combined with them. Antibodies of interest were expressed and prepared according to the method described in Reference Example 1. The prepared antibodies were used to assay the FcγRIIIa-binding activity. The result of assessment using P329R on the direction of FcγRIIIa recognition by L234Y, G236W, S298A, S239D, A330L, and I332E is summarized in Table 12.
Analysis of interaction between objective antibody and the FcγR was carried out using Biacore T100 (GE Healthcare). HBS-EP+ (GE Healthcare) was used as the running buffer, and the measurement temperature was set to 25° C. Chips produced by immobilizing the antigen peptide by the amine coupling method to a Series S Sencor Chip CM5 (GE Healthcare), or alternatively, chips produced by allowing preliminarily biotinylated antigen peptides to interact with and immobilize onto a Series S Sensor Chip SA (certified) (GE Healthcare) were used. Antibodies of interest were captured onto an antigen peptide-immobilized chip, and allowed to interact to each FcγR diluted with running buffer. To regenerate and repeatedly use the chip, the antibodies captured on the chip were washed off by reacting 10 mM glycine-HCl, pH 1.5.

FcgRIIaR [2] = target: T1, FcgRIIaR; assay: SPR (Biacore); KD of H240-Kn120/H240-Hl068/L73-k0 divided by KD of this antibody
Method: (§1) Analysis of interaction between obj ective antibody and the FcγR was carried out using Biacore T100 (GE Healthcare), Biacore T200, Biacore A100, and Biacore 4000.

FcgRIIb [3] = target: T2, FcgRIIb; assay: as above
Method: as §1

FcgRIIIaF [4] = target: T5, FcgRIIIaF (human, UniProt P08637 17-208); assay: as above
T5 construct: extracellular domain; Soluble extracellular domain with C-terminal His tag; polymorphic site made after J. Clin. Invest; also called FcγRIIIa F; not shown: His tag attached to the C terminus
Method: as §1

FcgRIa [5] = target: T6, FcgRIa (human, UniProt P12314 16-292); assay: as above
T6 construct: extracellular domain; Soluble extracellular domain with C-terminal His tag, expressed in FreeStyle293 cells; also called FcγRIa; FcγRI; not shown: His tag attached to the C terminus
Method: as §1

FcgRIIIaV [6] = target: T7, FcgRIIIaV (human, UniProt P08637 17-208); assay: as above
T7 construct: extracellular domain; Soluble extracellular domain with C-terminal His tag; polymorphic site made after J. Clin. Invest; also called FcγRIIIa V; not shown: His tag attached to the C terminus
Method: as §1

FcgRIIaH [7] = target: T3, FcgRIIaH; assay: as above
Method: as §1

FcgRIIaR [8] = target: T1, FcgRIIaR; assay: SPR (Biacore), antibody captured, FcgR as analyte
Method: (§2) Analysis of interaction between obj ective antibody and the FcγR was carried out using Biacore T100 (GE Healthcare), Biacore T200, Biacore A100, and Biacore 4000. HBS-EP+ (GE Healthcare) was used as the running buffer, and the measurement temperature was set to 25° C. Chips produced by immobilizing the antigen peptide by the amine coupling method to a Series S sensor Chip CM5 (GE Healthcare), chips produced by allowing preliminarily biotinylated antigen peptides to interact with and immobilize onto a Series S Sensor Chip SA (certified) (GE Healthcare), chips produced by immobilizing Protein L (ACTIGEN, BioVision) to Series S Sencor Chip CM5 (GE Healthcare), or chips produced by immobilizing Protein A/G (Thermo Scientific) to Series S Sencor Chip CM5 (GE Healthcare) were used. Antibodies of interest were captured onto these chips, and allowed to interact to each FcγR diluted with running buffer. To regenerate and repeatedly use the chip, the antibodies captured onto the chip were washed off by reacting 10 mM glycine-HCl, pH 1.5.

FcgRIIb [9] = target: T2, FcgRIIb; assay: SPR (Biacore), antibody captured, FcgR as analyte
Method: as §2

FcgRIIIaF [10] = target: T5, FcgRIIIaF; assay: SPR (Biacore), antibody captured, FcgR as analyte
Method: as §2

FcgRIa [11] = target: T6, FcgRIa; assay: SPR (Biacore), antibody captured, FcgR as analyte
Method: as §2

FcgRIIIaV [12] = target: T7, FcgRIIIaV; assay: SPR (Biacore), antibody captured, FcgR as analyte
Method: as §2

FcgRIIaH [13] = target: T3, FcgRIIaH; assay: SPR (Biacore), antibody captured, FcgR as analyte
Method: as §2

T7 sequence (P08637 17-208 F176V limits assumed): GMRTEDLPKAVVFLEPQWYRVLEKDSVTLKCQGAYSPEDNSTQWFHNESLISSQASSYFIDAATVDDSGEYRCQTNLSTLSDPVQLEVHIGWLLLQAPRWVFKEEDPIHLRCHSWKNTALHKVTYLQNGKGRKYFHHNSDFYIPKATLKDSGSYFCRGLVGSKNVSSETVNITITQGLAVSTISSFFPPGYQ
T5 sequence (P08637 17-208): as the sequence (P08637 17-208 F176V limits assumed) above, with V160F counted along it
T6 sequence (P12314 16-292): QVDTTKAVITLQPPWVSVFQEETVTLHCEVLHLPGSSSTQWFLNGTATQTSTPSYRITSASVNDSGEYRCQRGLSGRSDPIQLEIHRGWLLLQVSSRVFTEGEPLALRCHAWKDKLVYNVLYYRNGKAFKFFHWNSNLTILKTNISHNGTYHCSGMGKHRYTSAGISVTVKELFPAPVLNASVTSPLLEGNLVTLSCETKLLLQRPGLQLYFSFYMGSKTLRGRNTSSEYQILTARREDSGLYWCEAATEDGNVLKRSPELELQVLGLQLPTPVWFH
T4 sequence (P08637 17-208): as the sequence (P08637 17-208 F176V limits assumed) above, with V160F counted along it

Row | FcγRIIIa BINDING ACTIVITY (relative) [1] | Relative KD (FcgRIIaR [2]) | Relative KD (FcgRIIb [3]) | Relative KD (FcgRIIIaF [4]) | Relative KD (FcgRIa [5]) | Relative KD (FcgRIIIaV [6]) | Relative KD (FcgRIIaH [7]) | Kd (FcgRIIaR [8]) | Kd (FcgRIIb [9]) | Kd (FcgRIIIaF [10]) | Kd (FcgRIa [11]) | Kd (FcgRIIIaV [12]) | Kd (FcgRIIaH [13]) | Binder
1 | 189 relative, GpH7-A5/GpH7-B3/GpL16-k0 = 100 | – | – | – | – | – | – | – | – | – | – | – | – | GpH7-A48/GpH7-B3-22-10E/GpL16-k0 (antibody, human IgG1, kappa, Heterodimerized anti-glypican-3 IgG1 variant) heavy 1: QVQLVQSGAEVKKPGASVTVSCKASGYTFTDYEMHWIRQPPGEGLEWIGAIDPKTGDTAYSESFQDRVTLTADKSTSTAYMELSSLTSEDTAVYYCTRFYSYTYWGQGTLVTVSSASTKGPSVFPLAPSSKSTSGGTAALGCLVKDYFPEPVTVSWNSGALTSGVHTFPAVLQSSGLYSLSSVVTVPSSSLGTQTYICNVNHKPSNTKVDKKVEPKSCDKTHTCPPCPAPELLGGPSVFLFPPKPKDTLMISRTPEVTCVVVDVSHEDPEVKFNWYVDGVEVHNAKTKPREEQYNSTYRVVSVLTVLHQDWLNGKEYKCKVSNKALRAPIEKTISKAKGQPREPQVYTLPPSRKELTKNQVSLTCLVKGFYPSDIAVEWESNGQPENNYKTTPPVLDSDGSFFLYSKLTVDKSRWQQGNVFSCSVMHEALHNRYTQKSLSLSP heavy 2: not shown light: DIVMTQSPLSLPVTPGEPASISCQASESLVHSNRNTYLHWYLQKPGQSPQLLIYKVSNRFSGVPDRFSGSGSGTDFTLKISRVEAEDVGVYYCSQNTHVPPTFGQGTKVEIERTVAAPSVFIFPPSDEQLKSGTASVVCLLNNFYPREAKVQWKVDNALQSGNSQESVTEQDSKDSTYSLSSTLTLSKADYEKHKVYACEVTHQGLSSPVTKSFNRGEC
2 | – | 1 | 1 | 1 | 1 | 1 | 1 | 20 nM | 150 nM | 2.2 nM | 0.16 nM | 0.36 nM | 41 nM | H240-Kn120/H240-Hl068/L73-k0 (antibody, human IgG1, kappa, Heterodimerized anti-epiregulin IgG1 antibody (knobs-into-holes); also called H240-Kn120/H240-HI068/L73-k0) heavy 1: QDQLVQSGAEVKKPGASVKVSCKASGFNIKDTYIQWVRQAPGQGLEWMGRIDPLRKQTKYREKFEGRVTITADTSTNTAYMELSSLRSEDTAVYYCVRSGREFDYWGQGTLVTVSSASTKGPSVFPLAPSSKSTSGGTAALGCLVKDYFPEPVTVSWNSGALTSGVHTFPAVLQSSGLYSLSSVVTVPSSSLGTQTYICNVNHKPSNTKVDKKVEPKSCDKTHTCPPCPAPEYYWGPMVFLFPPKPKDTLMISRTPEVTCVVVDVSDEDPEVKFNWYVDGVEVHNAKTKPREEQYNATYRVVSVLTVLHQDWLNGKEYKCKVSNKDLPAPIEKTISKAKGQPREPQVCTLPPSRDELTKNQVSLWCLVKGFYPSDIAVEWESNGQPENNYKTTPPVLDSDGSFFLYSKLTVDKSRWQQGNVFSCSVMHEALHNHYTQKSLSLSP heavy 2: QDQLVQSGAEVKKPGASVKVSCKASGFNIKDTYIQWVRQAPGQGLEWMGRIDPLRKQTKYREKFEGRVTITADTSTNTAYMELSSLRSEDTAVYYCVRSGREFDYWGQGTLVTVSSASTKGPSVFPLAPSSKSTSGGTAALGCLVKDYFPEPVTVSWNSGALTSGVHTFPAVLQSSGLYSLSSVVTVPSSSLGTQTYICNVNHKPSNTKVDKKVEPKSCDKTHTCPPCPAPELLGGPSVFLFPPKPKDTLMISRTPEVTCVVVDVSHEEPEVKFNWYVDGVEVHNAKTKPREEQYNSTYRVVSVLTVLHQDWLNGKEYKCKVSNDALPKPIEETISKAKGQPREPQVYTLPPSRCELTKNQVSLSCAVKGFYPSDIAVEWESNGQPENNYKTTPPVLDSDGSFFLVSKLTVDKSRWQQGNVFSCSVMHEALHNHYTQKSLSLSP light: DIQMTQSPSSLSASVGDRVTITCRASQDIHKYIAWYQQKPGQAPRLLIQYTSTLQPGVPSRFSGSGSGTDYTFTISSLQPEDIATYYCLQYEQLRTFGGGTKVEIKRTVAAPSVFIFPPSDEQLKSGTASVVCLLNNFYPREAKVQWKVDNALQSGNSQESVTEQDSKDSTYSLSSTLTLSKADYEKHKVYACEVTHQGLSSPVTKSFNRGEC
3 | – | 1 | 1.5 | 0.7 | 0.4 | 0.6 | 1.2 | 20 nM | 98 nM | 3 nM | 0.39 nM | 0.57 nM | 35 nM | H240-Kn120/H240-Hl150/L73-k0 (antibody, human IgG1, kappa, Heterodimerized anti-epiregulin IgG1 antibody; I332T introduced into H240-Hl068; also called H240-Kn120/H240-HI150/L73-k0) heavy 1: QDQLVQSGAEVKKPGASVKVSCKASGFNIKDTYIQWVRQAPGQGLEWMGRIDPLRKQTKYREKFEGRVTITADTSTNTAYMELSSLRSEDTAVYYCVRSGREFDYWGQGTLVTVSSASTKGPSVFPLAPSSKSTSGGTAALGCLVKDYFPEPVTVSWNSGALTSGVHTFPAVLQSSGLYSLSSVVTVPSSSLGTQTYICNVNHKPSNTKVDKKVEPKSCDKTHTCPPCPAPEYYWGPMVFLFPPKPKDTLMISRTPEVTCVVVDVSDEDPEVKFNWYVDGVEVHNAKTKPREEQYNATYRVVSVLTVLHQDWLNGKEYKCKVSNKDLPAPIEKTISKAKGQPREPQVCTLPPSRDELTKNQVSLWCLVKGFYPSDIAVEWESNGQPENNYKTTPPVLDSDGSFFLYSKLTVDKSRWQQGNVFSCSVMHEALHNHYTQKSLSLSP heavy 2: QDQLVQSGAEVKKPGASVKVSCKASGFNIKDTYIQWVRQAPGQGLEWMGRIDPLRKQTKYREKFEGRVTITADTSTNTAYMELSSLRSEDTAVYYCVRSGREFDYWGQGTLVTVSSASTKGPSVFPLAPSSKSTSGGTAALGCLVKDYFPEPVTVSWNSGALTSGVHTFPAVLQSSGLYSLSSVVTVPSSSLGTQTYICNVNHKPSNTKVDKKVEPKSCDKTHTCPPCPAPELLGGPSVFLFPPKPKDTLMISRTPEVTCVVVDVSHEEPEVKFNWYVDGVEVHNAKTKPREEQYNSTYRVVSVLTVLHQDWLNGKEYKCKVSNDALPKPTEETISKAKGQPREPQVYTLPPSRCELTKNQVSLSCAVKGFYPSDIAVEWESNGQPENNYKTTPPVLDSDGSFFLVSKLTVDKSRWQQGNVFSCSVMHEALHNHYTQKSLSLSP light: DIQMTQSPSSLSASVGDRVTITCRASQDIHKYIAWYQQKPGQAPRLLIQYTSTLQPGVPSRFSGSGSGTDYTFTISSLQPEDIATYYCLQYEQLRTFGGGTKVEIKRTVAAPSVFIFPPSDEQLKSGTASVVCLLNNFYPREAKVQWKVDNALQSGNSQESVTEQDSKDSTYSLSSTLTLSKADYEKHKVYACEVTHQGLSSPVTKSFNRGEC
